Experiment [1] addresses T1, biotinylated HLA-A2/WT1126 (…) monomer (human, biotin at a specific biotinylation site at the C-terminus).
T1 construct: also called HLA-A2-WT1 monomer; WT1126/HLA-A2
Description: SPR (Biacore). A general note: In SPR one partner is held on a chip, and binding of the other changes the refractive index at the surface.
Description: (§1) Kinetics and affinities of various antibodies and WT1₁₂₆/HLA-A2 were analyzed by surface plasmon resonance technology using a Biacore T100 instrument (GE healthcare). Biotinylated WT1₁₂₆/HLA-A2 was captured by streptavidin-fusion protein on a sensor chip (CM5). A control reference surface was prepared for nonspecific binding and refractive index changes. For analysis of the kinetics of interactions, varying concentrations of antibodies were injected at flow rate of 30 μl/min using a running buffer containing 10 mM HEPES, 150 mM NaCl, 3 mM EDTA, and 0.05% Surfactant P-20 (pH 7.4). The association and dissociation phase data were fitted simultaneously to a 1:1 model by using BIAevaluation 3.2. All the experiments were done at 25° C.

Experiment [2] addresses T2, HLA-A2/pp65 (…) on T2 cells (human; human cytomegalovirus).
T2 construct: also called T2 cells loaded with control peptide pp65
Description: flow cytometry on peptide-loaded T2 cells. (A flow cytometer gives signals particle by particle.)

Experiment [3] deals with T1, biotinylated HLA-A2/WT1126 (…) monomer. Description: SPR Biacore T100; biotinylated pMHC captured, antibody injected; 1:1 fit.
Description: as §1
Experiment [4] addresses HLA-A2/WT1 187-195 (…) complex (human, biotin at a specific biotinylation site at the C-terminus). Description: ELISA on wells coated with the named HLA-A2/peptide monomer, HRP anti-Flag detection, OD 490 nm.
The target of experiment [5] is HLA-A2/WT1 235-243 (…) complex (human, biotin at a specific biotinylation site at the C-terminus). The experiment is described as above.
A further experiment deals with T3, HLA-A2/CDR2 (…) tetramer (human).
T3 construct: Peptide from cerebellar degeneration-related protein 2; also called negative control (HLA-A2-CDR2) tetramer; irrelevant HLA-A2/CDR2-derived peptide
The experiment is described as follows: flow cytometry of scFv-displaying yeast, negative control HLA-A2-CDR2 tetramer (y, Binding) against scFv expression (x).

What is called Kd is the concentration at which binding is half-saturated. Low readings indicate higher affinity, high ones lower affinity.

B1: Clone45 scFv (scFv)
scFv: EVQLLESGGGLVQPGGSLRLSCAASGFTFSSYAMSWVRQAPGKGLEWVSQIDPWGQETLYADSVKGRFTISRDNSKNTLYLQMNSLRAEDTAVYYCAKLTGRFDYWGQGTLVTVSSGGGGSGGGGSGGGGSTDIQMTQSPSSLSASVGDRVTITCRASQSISSYLNWYQQKPGKAPKLLIYSASQLQSGVPSRFSGSGSGTDFTLTISSLQPEDFATYYCQQGPGTPNTFGQGTKVEIKRA
notes: also called scFv Clone45; parental Clone45
Take B1: the Kd in experiment [1] stood at 300 nM; in experiment [3], 263 nM. Also, the binding result (in experiment [2]; in experiment [4]; in experiment [5]; with HLA-A2/CDR2 (…) tetramer) was “no binding” each time.

(Values after patent US20160152725A1 (Memorial Sloan Kettering, published 2016).)
